Tests used:
[1] = type: cell-based, E. coli; conditions: BL21 Star (DE3) cells, toluene treated, 20 μM thebaine, overnight 30° C.
[2] = MND enzyme stability assay; type: biochemical; conditions: pre-incubated at 30° C. in assay buffer pH 7.0 up to 72 hours, then 20 min with thebaine
Description: 100 μl purified MND enzyme (˜36 μg) was incubated in 30 mM potassium phosphate buffer pH 7.0 at 30° C. for 72, 48, 24, 6, 3, and 1 hours prior to addition of 1500 pmol thebaine in a total volume of 200 μl. The assay was allowed to proceed for 20 minutes after substrate addition and was processed and analyzed as in section 23.0.

[3] = MND solvent stability assays; type: biochemical; conditions: for reduction in activity: pH 7.0, 30° C., 20 min
Description: FIG. 27. […] Enzyme assays with 5% and 25% of DMSO, methanol, chloroform, tetrahydrofuran, toluene, heptane, and diethyl ether were performed in duplicate and contained 30 mM potassium phosphate buffer pH 7.0, 36 μg purified enzyme, and 1500 pmol of thebaine. Assays were allowed to proceed for 20 min at 30° C. and analyzed by LC-MS/MS using the QTRAP 6500.
Enzymes used in pharma manufacturing must withstand harsh conditions and tolerate solvents, especially if the substrate is insoluble in water (FIG. 27). MND activity was tested in the following solvents at 5% and 25% concentration: DMSO, methanol, chloroform, tetrahydrofuran, toluene, heptane, and diethyl ether.

[4] = Proteinase K treatment and cofactor addition, conversion of thebaine to northebaine; type: biochemical; conditions: 1 hour Proteinase K digestion before 20 min assay, pH 7.0
Description: The first of two assays performed included adding 1500 pmol FAD to the 200 MND enzyme assay including 100 μl purified MND (˜36 μg) and 1500 pmol thebaine in 30 mM potassium phosphate buffer pH 7.0 with and without a prior 1 hour digest (of MND enzyme) with Proteinase K. Controls included a no enzyme control, FAD addition to a no enzyme control, a pET28a empty vector control, a pET28a empty vector control with FAD, and a pET28a empty vector control digested with Proteinase K followed by FAD addition. Assays were allowed to incubate for 20 minutes and then processed as in section 23.0. A second set of assays was performed, in duplicate, to validate the results found in the previous assay in addition to testing more cofactors. This assay included the following conditions; MND enzyme, MND enzyme pre-digested with Proteinase K for 1 hour, MND enzyme digested with Proteinase K in the presence of 1% SDS and 10 mM EDTA, MND enzyme with 1% SDS and 10 mM EDTA (no Proteinase K pre-digestion), pET28a empty vector, pET28a empty vector pre-digested with Proteinase K for 1 hour, pET28a empty vector digested with Proteinase K in the presence of 1% SDS and 10 mM EDTA, MND enzyme with the addition of 1500 pmol FMN, pET28a empty vector with the addition of 1500 pmol FMN, MND enzyme with the addition of 1500 pmol PLP and pET28a empty vector with the addition of 1500 pmol PLP. Assays were allowed to proceed for 20 minutes prior to processing and quantitation as described in section 23.0.

[5] = MND enzyme pH optimum assay; type: biochemical; conditions: 20 min
Description: Enzyme assays with 100 μl purified MND enzyme (˜36 μg), 7.5 μM thebaine, and 60 mM buffer (citrate buffer pH 4 and pH 5, potassium phosphate buffer pH 6.0, pH 7.0, and pH 8.0, and glycine-NaOH buffer pH 9, pH 10, and pH 10.5) in a total assay volume of 200 μl were allowed to incubate at 30° for 20 minutes. Assays with no enzyme and a purified pET28a empty vector control in pH 8.0 were included. The remaining protocol was the same as for the temperature optimum above. A supplemental pH assay was run in the same manner as above to verify the low pH results using a glycine-HCL buffer for pH 2, 3, and 4 and citrate buffer for pH 4, 5, and 6.

[6] = MND enzyme temperature optimum assay; type: biochemical; conditions: 20 min assays at 20° C.-80° C., pH 8.0, 7.5 μM thebaine
Description: Enzyme assays with 100 μl purified MND enzyme (˜36 μg), 7.5 μM thebaine, and 30 mM potassium phosphate pH 8.0 in a total assay volume of 200 μl were performed in duplicate and allowed to incubate at the following temperatures for 20 minutes: 20° C., 25° C., 30° C., 40° C., 50° C., 60° C., 70° C. and 80° C. Assays with purified pET28a empty vector control were included at each temperature. Assays were quenched by the addition of 400 μl MeOH followed by rapid mixing for 30 s then subject to centrifugation (16,000×g, 30 min, RT). Samples were diluted further (total of 50 fold dilution) to achieve an analyte concentration of 0.15 μM prior to filtration (low protein binding 0.2 μm, 4 mm, PTFE; Millipore) and introduction into the QTRAP 6500 using Method 1.

B1: MND enzyme: morphinan N-demethylase identified from the Methylobacterium Thebainfresser, amino acid sequence SEQ ID NO: 2, His-tagged, expressed in E. coli (protein)
chain: MTEKTPKLGSEAANKLGLEADISRRDMVGGVLIGAGAALLASVAPGAINRALAEGPSRLPPVRGSGTGWRGIEIADDWQGPGGIGDYSKSNGNTGKVIRDAHAGIRNHEFEKRLATASDVNEKYDVIIVGAGISGLHSAYDLLRQRPNIKILMLDNHAIFGGEAKQNKMEVDGQALYGGQGPTLYSFVGDDLPSWKGNPALASIMELKTYPKEFGLPTETTWSDKKTDVKVPVDLWFSMASPSQTDIAYRWEGSGLVKNPLLNSFRDAPVSQKSKDAIALMLAVDNGAKRPVEPVGDVSTWVDNMTYAEFLKKVYGADDEAVQLVDQIDVVGTAGLGGDVFNASLAALGLNQYGGIELWNGGLQGLSLPTGNGGVGRSILRKFMPGAIKGGTSLTDTLFGDVNWDVLDHANNNVRIRLNSTVVGVQNNETPTGTKDATVFFLHDNRLYKAKGKAVIMGTPQQVNRNVCLNLPNHLSEAMGDFHHAPILVVNVALRNWKSMEKAGVSGLRWFGEYPGIGQIVRSMVIDGKEIMPCDPSKPAVMTFYIPMNQATRGMPRGEQAMTARHMLFNLTFADIELLIRDQLTRAFGSYGFDAKRDIAAIVANRWGHALVCAGPGFYTGLNGKPPVSKVITAGWDRVAFGHSDLSGRQAWTVAVNYARTAVANVFPKI
modifications: His tag; Methylobacterium Thebainfresser
morphinan N-demethylase activity (northebaine production, in words) [1]: showed morphinan N-demethylase activity | ability to demethylate thebaine after pre-incubation (stability) [2]: maintained its ability to demethylate thebaine | activity (in words) ([3]; 5% DMSO): little to no reduction in activity | activity (in words) ([3]; 5% methanol): little to no reduction in activity | activity (in words) ([3]; 5% toluene): little to no reduction in activity | reduction in activity ([3]; 25% DMSO): 21% | activity (in words) ([3]; 25% chloroform): completely abolished | reduction in activity ([3]; 25% methanol): 43% | activity (in words) ([3]; 25% tetrahydrofuran): completely abolished | reduction in activity ([3]; 25% toluene): 44% | reduction in activity ([3]; diethyl ether (25%)): 66% | activity (in words) ([3]; heptane, outlier, heptane sat on top of the reaction): no reduction in activity | amount of northebaine produced after Proteinase K treatment of the enzyme [4]: increased | northebaine production at pH 4 compared with pH 5-10.5 ([5]; citrate buffer pH 4, 30° C., not observed in glycine-HCL buffer): nearly twice as much | difference in northebaine production within the pH range ([5]; pH range of 5-10.5, 30° C.): no significant difference | temperature of highest northebaine accumulation [6]: 60 °C

— US11542481B2, “Morphinan N-demethylase isolated from the methylobacterium thebainfresser and methods of use thereof” (priority 2017, dated 2023)
